Results taken from patent US8629107B2, “Genes and proteins associated with angiogenesis and uses thereof” (National Jewish Health, priority 2005, dated 2014).

How the values were obtained:
[1] = tested on: MB114 cells; assay: cell invasion through Matrigel matrices, modified Boyden-chamber assay; format: cell-based, murine; details: MB114 cells stably expressing the transgene vs GFP; 48 h
Description: (§1) The effect putative angiogenic agents had on MB114 cell activities were determined as follows: (i) cell proliferation using a [^3H]thymidine incorporation assay as described (Albig et al, 2006; Albig and Schiemann, 2004; Albig and Schiemann, 2005); (ii) cell invasion through Matrigel matrices using a modified Boyden-chamber assay as described (Albig et al, 2006; Albig and Schiemann, 2004; Albig and Schiemann, 2005); (iii) p38 MAPK phosphorylation using immunoblot analyses as described (Albig et al, 2006; Albig and Schiemann, 2004; Albig and Schiemann, 2005); (iv) angiogenic sprouting in rat tail collagen matrices as described (Albig et al, 2006; Albig and Schiemann, 2004); and (v) Hes1- and SBE-driven luciferase reporter gene assays as described (Albig et al, 2006; Albig and Schiemann, 2004; Albig and Schiemann, 2005).
(§2) FIG. 1A show results from an experiment in which serum-starved MB114 cells, stably expressing either GFP or various putative angiogenic agents, were stimulated in the absence or presence of either bFGF (50 ng/ml) or EGF (10 ng/ml) for 24 h at 37° C. Differences in MB114 cell DNA synthesis was determined by measuring [^3H]thymidine incorporation into cellular DNA. […] In this experiment, invasion of MB114 cells expressing either GFP or various putative angiogenic agents through synthetic basement membranes was determined over 48 h using a modified Boyden-chamber assay.

[2] = tested on: Smad2/3-binding element (SBE); assay: SBE-driven luciferase reporter gene assay in MB114 cells; format: cell-based, murine; details: MAGP-2-expressing vs GFP-expressing MB114 cells; TGF-β1 0-5 ng/ml overnight
Description: as §1
To further investigate the impact of MAGP-2 on Notch1 processing and NICD accumulation, the inventors took advantage of recent findings showing that the ability of TGF-β to induce Hes1 promoter activity requires Smad3 to interact physically with NICD (Blokzijl et al, 2003), a reaction that is dispensable for canonical Smad3-mediated signaling stimulated by TGF-β (Blokzijl et al, 2003). […]

[3] = biological target: T1, Notch1 (Mus musculus, UniProt Q01705); assay: Notch1 processing assay in human kidney 293T cells; format: cell-based; details: co-expression with Notch1 and Jagged-1 in 293T cells
T1 construct: expressed in transfected cells; host or cells: human kidney 293T cells, transient transfection (LT-1 liposomes)
Description: To monitor the effects of MAGP-2 on the processing and S3 cleavage of Notch1, human kidney 293T cells were transiently transfected in 6-well plates with LT-1 liposomes containing 0.5 μg/well of Notch1 (pCS2+mN1FL6MT), 0.5 μg/well Jagged-1 (pCS2+Jag1-6MT), or 1.5 μg/well of MAGP-2 (pcDNA3.1-MAGP-2/Myc-His) in all combinations. Forty-eight h post-transfection, the cells were washed with ice-cold PBS, lysed immediately in Buffer H/1% Triton X-100 [500 μl/well; (Schiemann et al, 2002)], and incubated on ice for 30 min. Afterward, insoluble material was removed by microcentrifugation and 100 μl of the resulting clarified extract was fractionated through 6% SDS-PAGE gels. The fractionated proteins were transferred electrophoretically to nitrocellulose and probed with anti-Myc 9E10 monoclonal antibodies (Covance, Princeton, N.J.) to visual Notch1 cleavage species.
Activation of Notch1 signaling involves three proteolytic processing events, termed S1, S2, and S3, that produce three distinct Notch1 fragments, termed TMIC, NEXT, and NICD, respectively (Mumm et al, 2000). […] The inventors tested this possibility by transiently transfecting human 293T cells with cDNAs encoding Myc-tagged versions of Notch1, Jagged-1, and MAGP-2 in all combinations, and subsequently monitored changes in NICD production and accumulation by immunoblot analyses using anti-Myc monoclonal antibodies. […]

[4] = tested on: p38 MAPK; assay: p38 MAPK phosphorylation by immunoblot analyses; format: cell-based, murine; details: serum-starved MB114 cells expressing the transgene; bFGF 50 ng/ml or EGF 10 ng/ml, 0-15 min
Description: as §1
The inventors' previous studies have associated stimulation of p38 MAPK activity with angiogenesis of MB114 cells and, conversely, inhibition of p38 MAPK activity with angiostasis of MB114 cells (Albig et al, 2006; Albig and Schiemann, 2004; Albig and Schiemann, 2005). […] The phosphorylation status of p38 MAPK was determined by immunoblotting whole cell lysates with phospho-specific p38 MAPK antibodies (p38-P). Differences in protein loading were monitored by reprobing stripped membranes with anti-p38 MAPK polyclonal antibodies (p38).

[5] = tested on: MB114 cells; assay: cell proliferation, [3H]thymidine incorporation assay; format: cell-based, murine; details: serum-starved MB114 cells stably expressing the transgene vs GFP, 24 h, 37° C.
Description: as §1, §2

T1 sequence (Q01705 19-2531): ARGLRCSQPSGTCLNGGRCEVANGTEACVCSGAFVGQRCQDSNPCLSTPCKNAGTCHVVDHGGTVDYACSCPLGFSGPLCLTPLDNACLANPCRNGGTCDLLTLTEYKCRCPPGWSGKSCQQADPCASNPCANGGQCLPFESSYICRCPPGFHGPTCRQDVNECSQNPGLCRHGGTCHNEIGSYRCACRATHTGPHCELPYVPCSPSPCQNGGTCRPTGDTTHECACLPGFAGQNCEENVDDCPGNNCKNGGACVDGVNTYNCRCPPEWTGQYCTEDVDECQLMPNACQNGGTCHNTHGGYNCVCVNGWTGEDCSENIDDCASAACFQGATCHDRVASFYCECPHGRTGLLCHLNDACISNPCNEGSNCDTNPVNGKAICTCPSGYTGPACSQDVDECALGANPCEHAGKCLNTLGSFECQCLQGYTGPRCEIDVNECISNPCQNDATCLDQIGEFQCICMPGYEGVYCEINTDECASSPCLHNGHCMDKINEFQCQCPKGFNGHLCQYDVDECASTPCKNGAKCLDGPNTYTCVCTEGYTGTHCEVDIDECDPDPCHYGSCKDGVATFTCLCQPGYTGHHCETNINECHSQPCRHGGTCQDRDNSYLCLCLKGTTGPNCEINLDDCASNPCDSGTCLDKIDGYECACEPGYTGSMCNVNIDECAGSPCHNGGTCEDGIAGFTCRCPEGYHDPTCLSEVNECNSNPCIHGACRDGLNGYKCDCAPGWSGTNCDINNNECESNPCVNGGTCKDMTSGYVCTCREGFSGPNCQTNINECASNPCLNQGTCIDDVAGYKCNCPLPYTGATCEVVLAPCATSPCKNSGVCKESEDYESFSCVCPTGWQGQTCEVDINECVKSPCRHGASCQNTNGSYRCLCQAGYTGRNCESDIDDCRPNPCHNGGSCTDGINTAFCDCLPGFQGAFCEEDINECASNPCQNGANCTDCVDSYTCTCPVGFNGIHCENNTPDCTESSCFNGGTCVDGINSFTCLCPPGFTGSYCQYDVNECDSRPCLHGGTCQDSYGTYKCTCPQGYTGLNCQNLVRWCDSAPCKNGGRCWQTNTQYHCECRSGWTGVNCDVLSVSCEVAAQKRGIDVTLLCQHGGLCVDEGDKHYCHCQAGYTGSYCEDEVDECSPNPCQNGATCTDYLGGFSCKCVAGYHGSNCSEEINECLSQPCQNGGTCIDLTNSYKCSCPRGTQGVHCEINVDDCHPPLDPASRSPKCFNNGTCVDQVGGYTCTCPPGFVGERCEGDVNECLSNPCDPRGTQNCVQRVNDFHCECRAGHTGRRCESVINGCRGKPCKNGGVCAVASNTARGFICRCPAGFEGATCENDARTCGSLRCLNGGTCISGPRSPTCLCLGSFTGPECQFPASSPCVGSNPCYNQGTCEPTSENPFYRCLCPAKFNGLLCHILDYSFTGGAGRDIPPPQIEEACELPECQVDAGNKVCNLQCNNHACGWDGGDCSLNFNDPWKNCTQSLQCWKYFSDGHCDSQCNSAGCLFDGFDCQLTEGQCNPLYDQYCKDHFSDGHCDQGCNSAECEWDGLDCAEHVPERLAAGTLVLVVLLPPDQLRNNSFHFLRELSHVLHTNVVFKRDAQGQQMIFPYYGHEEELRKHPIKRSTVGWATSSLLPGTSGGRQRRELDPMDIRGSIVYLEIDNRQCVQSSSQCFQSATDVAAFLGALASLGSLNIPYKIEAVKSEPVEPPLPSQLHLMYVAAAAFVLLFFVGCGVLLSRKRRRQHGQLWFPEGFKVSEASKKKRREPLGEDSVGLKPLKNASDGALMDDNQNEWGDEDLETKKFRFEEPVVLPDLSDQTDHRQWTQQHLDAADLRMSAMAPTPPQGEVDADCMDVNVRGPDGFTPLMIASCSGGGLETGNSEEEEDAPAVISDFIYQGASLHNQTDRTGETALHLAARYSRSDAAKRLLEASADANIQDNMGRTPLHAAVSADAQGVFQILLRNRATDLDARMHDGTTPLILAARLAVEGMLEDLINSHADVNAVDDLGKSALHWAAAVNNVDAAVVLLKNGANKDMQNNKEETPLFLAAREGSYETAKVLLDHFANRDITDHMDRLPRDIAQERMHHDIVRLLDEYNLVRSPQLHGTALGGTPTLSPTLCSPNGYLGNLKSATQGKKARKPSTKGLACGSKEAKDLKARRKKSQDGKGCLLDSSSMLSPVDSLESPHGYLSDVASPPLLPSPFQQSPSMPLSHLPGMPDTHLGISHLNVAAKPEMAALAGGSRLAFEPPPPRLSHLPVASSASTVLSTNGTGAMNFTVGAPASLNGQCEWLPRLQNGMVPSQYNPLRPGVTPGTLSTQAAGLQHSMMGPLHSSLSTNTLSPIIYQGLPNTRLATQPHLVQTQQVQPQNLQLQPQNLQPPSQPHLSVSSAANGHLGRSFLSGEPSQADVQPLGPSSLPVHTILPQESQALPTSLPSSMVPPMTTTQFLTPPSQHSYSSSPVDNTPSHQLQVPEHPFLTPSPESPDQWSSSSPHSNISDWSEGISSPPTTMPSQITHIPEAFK

B1: MAGP-2: secreted glycoprotein (25 kDa); stably expressed in MB114 cells by bicistronic retroviral transduction, Myc-His tagged (protein)
chain: QRGDDVPETFTDDPNLVNDPSTDDTALADITPSTDDLAGDKNATAECRDEKFACTRLYSVHRPVRQCVHQSCFTSLRRMYIINNEICSRLVCKEHEAMKDELCRQMAGLPPRRLRRSNYFRLPPCENMNLQRPDGL
modifications: left off: small tags and cut ends
notes: secreted glycoprotein (25 kDa); stably expressed in MB114 cells by bicistronic retroviral transduction, Myc-His tagged
[1]
  MB114 cell invasion through synthetic basement membranes: significantly induced
[2]
  TGF-β stimulation of SBE-luciferase activity: no effect
[3]
  ability of Jagged-1 to induce Notch1 cleavage and NICD production: reduced significantly
[4]
  p38 MAPK phosphorylation: significantly enhanced
[5]; EGF 10 ng/ml
  proliferative response of MB114 cells to EGF ([3H]thymidine incorporation into cellular DNA): significantly enhanced
[5]; bFGF 50 ng/ml
  proliferative response of MB114 cells to bFGF ([3H]thymidine incorporation into cellular DNA): significantly enhanced
